Data set [1] deals with Ralstonia solanacearum FabG2 (3-ketoacyl-ACP reductase, RSp0359), N-terminal hexahistidine-tagged (Ralstonia solanacearum GMI1000). Nature of the data set: SEC. In general terms: Size exclusion chromatography separates by hydrodynamic size, large species first.
A further data set has as its target T1, RsFabG2 (Ralstonia pseudosolanacearum, UniProt Q8XSV8).
T1 construct: gene fabG2
The conditions noted are these: 50 μM NADPH, malonyl-ACP plus octanoyl-ACP or tetradecanoyl-ACP, 0.1 M sodium phosphate pH 7.0, 37 °C.

Data set [2] has as its target Ralstonia solanacearum FabG1 (3-ketoacyl-ACP reductase, RSc1052), N-terminal hexahistidine-tagged (Ralstonia solanacearum GMI1000). The data set is described as follows: SEC.
Substrate in data set [3]: CC(=O)CC(=O)SCCNC(=O)CCNC(=O)[C@H](O)C(C)(C)COP(=O)(O)OP(=O)(O)OC[C@H]1O[C@@H](n2cnc3c(N)ncnc32)[C@H](O)[C@@H]1OP(=O)(O)O
The data set is described as follows: purified protein. The conditions noted are these: 200 μM NADPH, 0.1 M sodium phosphate pH 7, 0.1 M LiCl.

Substrate in data set [4]: NC(=O)C1=CN([C@@H]2O[C@H](COP(=O)(O)OP(=O)(O)OC[C@H]3O[C@@H](n4cnc5c(N)ncnc54)[C@H](OP(=O)(O)O)[C@@H]3O)[C@@H](O)[C@H]2O)C=CC1
The data set is described as follows: purified protein. The settings on record: 200 μM acetoacetyl-CoA, 0.1 M sodium phosphate pH 7, 0.1 M LiCl, varied: cofactor.

Experimental findings from publication PMC4618531 (BMC Microbiology, 2015) are described below.

Broadly, the stoichiometry N is a count of units in the complex or per binding partner. Consider “Ralstonia solanacearum FabG2 (3-ketoacyl-ACP reductase, RSp0359), N-terminal hexahistidine-tagged (enzyme)”, for which the stoichiometry N in data set [1] came out at 4.

On to `NC(=O)C1=CN([C@@H]2O[C@H](COP(=O)(O)OP(=O)(O)OC[C@H]3O[C@@H](n4cnc5c(N)ncnc54)[C@H](OP(=O)(O)O)[C@@H]3O)[C@@H](O)[C@H]2O)C=CC1` [NADPH], for which the “reconstituted 3-ketoacyl-ACP reduction with EcFabB and EcFabZ, urea gel” value at RsFabG2 is “Upon the addition of NADPH, a 3-ketoacyl-ACP reductase (EcFabG, RsFabG1 or RsFabG2) and EcFabZ”.

“Ralstonia solanacearum FabG1 (3-ketoacyl-ACP reductase, RSc1052), N-terminal hexahistidine-tagged (enzyme)” returned a stoichiometry N in data set [2] of 4.

B1: EcFabG (Escherichia coli K-12) (protein)
chain: MNFEGKIALVTGASRGIGRAIAETLAARGAKVIGTATSENGAQAISDYLGANGKGLMLNVTDPASIESVLEKIRAEFGEVDILVNNAGITRDNLLMRMKDEEWNDIIETNLSSVFRLSKAVMRAMMKKRHGRIITIGSVVGTMGNGGQANYAAAKAGLIGFSKSLAREVASRGITVNVVAPGFIETDMTRALSDDQRAGILAQVPAGRLGGAQEIANAVAFLASDEAAYITGETLHVNGGMYMV
As usually defined, the Km is the substrate concentration at which the rate is half of its maximum. What is called Vmax is the top rate of the reaction or transport when substrate is in excess. One may read the kcat as the maximal rate divided by the concentration of active sites. Take B1: in the data set “purified protein [3]”, the Km worked out at 4372.6 ± 105.1 µM, the Vmax came to 97 µmol/min/mg and the kcat is 45.28 ± 4.3 s⁻¹. In the data set “purified protein [4]”, the Km stood at 5.41 ± 1.3 µM, the Vmax was 3.54 µmol/min/mg and the turnover number (kcat) amounted to 1.65 ± 0.43 s⁻¹.
